# In patent US20250296959A1, “B7-H3 TARGETING PEPTIDES AND CONSTRUCTS THEREOF” (Mariana Oncology Inc., priority 2024, published 2025):
# Starred links: 1 amine or outer side, 2 acyl side, 3 side chain; linkers in the order of their positions; H or OH if unused. Positions of bridges follow the written chain, without caps; N, C: chain ends. Non-standard residues stand in square brackets, D forms with d. Groups on a side chain read outwards from the residue. Primed or numbered codes have the meaning given here. *: point of attachment. R‑DOTAGA = O=C(O)CN1CCN(CC(=O)O)CCN([C@H](CCC(=O)*)C(=O)O)CCN(CC(=O)O)CC1; Ala(piperidin-4-yl) = O=C([C@H](CC1CCN([*:3])CC1)N[*:1])[*:2]; (2S,3S)βMePhe = C[C@@H](c1ccccc1)[C@H](N[*:1])C(=O)[*:2]; DOTA = O=C(O)CN1CCN(CC(=O)O)CCN(CC(=O)*)CCN(CC(=O)O)CC1; Phe(4-NHCONH2) = NC(=O)Nc1ccc(C[C@H](N)C(=O)O)cc1; PipAla = piperidinyl-alanine residue (as named); Trp(5-F) = N[C@@H](Cc1c[nH]c2ccc(F)cc12)C(=O)O; hydroxyVal = hydroxy-valine residue (as named); PEG4′ = 4x 3-(2-aminoethoxy)propanoic acid; hCba = O=C([C@H](CCC1CCC1)N[*:1])[*:2]; γGlu = O=C(O)[C@H](CCC(=O)[*:2])N[*:1]; 1Nal = N[C@@H](Cc1cccc2ccccc12)C(=O)O; Ala(4-THP) = N[C@@H](CC1CCOCC1)C(=O)O; Val(3-OH) = CC(C)(O)[C@H](N)C(=O)O; Cha = N[C@@H](CC1CCCCC1)C(=O)O; Tle = CC(C)(C)[C@H](N)C(=O)O; hLeu = CC(C)CC[C@H](N)C(=O)O; Dab = NCC[C@H](N)C(=O)O; Ms = CS(=O)(=O)*
# Target: B7-H3 on Calu-6 cells (human) (UniProt Q5ZPR3)
# Test: 177Lu-labelled peptide on Calu-6 cells, % cell associated fraction; B = 25<%<=50
row,Binder,% cell associated fraction [%]
1,Ac-[hLeu]YC[Tle]G[Dab][Ala(4-THP)]DVYC[Trp(5-F)]F[Val(3-OH)][dK](DOTA)-OH (disulfide 3-11 (inferred)) [Cpd 371],25 to 50
2,Ac-[hLeu]YC[Tle]GK[Pip(PEG4-DOTA)Ala]DVYC[Trp(5-F)]F[Val(3-OH)][dE]-NH2 (disulfide 3-11 (inferred)) [Cpd 410],25 to 50
3,Ac-[hCba]YC[Tle]GK[Ala(4-THP)]DVYC[Trp(5-F)]F[Val(3-OH)][dK](DOTA)-OH (disulfide 3-11 (inferred)) [Cpd 398],25 to 50
4,"Ac-[hLeu]YC[Tle]G[PipAla][Ala(4-THP)]DVYCXF[hydroxyVal][dK]([dE-DOTA])-OH (disulfide 3-11 (inferred); not fully specified (residue 12); printed as Ac-hLeu-Y-C-Tbg-G-PipAla-ThpA-D-V-Y-C-5FW-F-hydroxyVal-dLys(dGlu-DOTA)-COOH, disulfide) [Cpd 429]",25 to 50
5,"Ac-[hLeu]YC[Tle]G[PipAla][Ala(4-THP)]DVYCXF[hydroxyVal][dK]([Glu-DOTA])-OH (disulfide 3-11 (inferred); not fully specified (residue 12); printed as Ac-hLeu-Y-C-Tbg-G-PipAla-ThpA-D-V-Y-C-5FW-F-hydroxyVal-dLys(Glu-DOTA)-COOH, disulfide) [Cpd 428]",25 to 50
6,Ac-[hLeu]YC[Tle]GK(DOTA)[Ala(4-THP)]DVYC[Trp(5-F)]F[Val(3-OH)]-NH2 (disulfide 3-11 (inferred)) [Cpd 338],25 to 50
7,Ac-[hLeu]YC[Tle]G[Pip(PEG4-DOTA)Ala][Ala(4-THP)]DVYC[Trp(5-F)]F[Val(3-OH)][dA]-NH2 (disulfide 3-11 (inferred)) [Cpd 384],25 to 50
8,Ac-[hLeu]YC[Tle]GK[Pip(PEG4-DOTA)Ala]DVYC[Trp(5-F)]F[Val(3-OH)]-NH2 (disulfide 3-11 (inferred)) [Cpd 383],25 to 50

# Other lines, results leading:
row,% cell associated fraction [%],Binder
1,25 to 50,"Ac-[hLeu]YC[Tle]G[PipAla][Ala(4-THP)]DVYCXF[hydroxyVal][dK](R‑DOTAGA)-OH (disulfide 3-11 (inferred); not fully specified (residue 12); printed as Ac-hLeu-Y-C-Tbg-G-PipAla-ThpA-D-V-Y-C-5FW-F-hydroxyVal-dLys(R-DOTAGA)-COOH, disulfide) [Cpd 438]"
2,25 to 50,Ac-[hLeu]YC[Tle]G[PipAla][Ala(4-THP)]DVYC[1Nal]F[hydroxyVal][dK](DOTA)-OH (disulfide 3-11 (inferred)) [Cpd 436]
3,25 to 50,"Ac-[hLeu]YC[Tle]G[PipAla](CH2COOH)[PipAla]([PEG4′-DOTA])DVYC[Trp(5-F)][(2S,3S)βMePhe][Val(3-OH)][dE]-NH2 (disulfide 3-11 (inferred)) [Cpd 496]"
4,25 to 50,Ac-[hLeu]YC[Tle]G[PipAla][Ala(4-THP)]DVYC[Trp(5-F)]F[hydroxyVal][dK]([PEG4′-DOTA])-OH (disulfide 3-11 (inferred)) [Cpd 465]
5,25 to 50,"Ms-[hLeu]YC[Tle]G[PipAla][Ala(4-THP)]DVYCXF[hydroxyVal][dK](DOTA)-OH (disulfide 3-11 (inferred); not fully specified (residue 12); printed as MeSO2-hLeu-Y-C-Tbg-G-PipAla-ThpA-D-V-Y-C-5FW-F-hydroxyVal-dLys(DOTA)-COOH, disulfide) [Cpd 437]"
6,25 to 50,"Ac-[hLeu]YC[Tle]G[PipAla][Ala(4-THP)]DVYCXF[hydroxyVal][dK]([γGlu-DOTA])-OH (disulfide 3-11 (inferred); not fully specified (residue 12); printed as Ac-hLeu-Y-C-Tbg-G-PipAla-ThpA-D-V-Y-C-5FW-F-hydroxyVal-dLys(gGlu-DOTA)-COOH, disulfide) [Cpd 440]"

# Target: B7-H3 on Calu-6 cells (human) (UniProt Q5ZPR3)
# Test: 177Lu-labelled peptide on Calu-6 cells, % cell associated fraction; C = >50%
row,Binder,% cell associated fraction [%]
1,Ac-[hLeu]YC[Tle]GK[Pip(PEG4-DOTA)Ala]DVYC[Trp(5-F)]F[Val(3-OH)][dS]-NH2 (disulfide 3-11 (inferred)) [Cpd 408],> 50
2,"Ac-[hLeu]YC[Tle]G[PipAla][Ala(4-THP)]DV[Phe(4-NHCONH2)]CXF[hydroxyVal][dK](DOTA)-OH (disulfide 3-11 (inferred); not fully specified (residue 12); printed as Ac-hLeu-Y-C-Tbg-G-PipAla-ThpA-D-V-Aph(Cbm)-C-5FW-F-hydroxyVal-dLys(DOTA)-COOH, disulfide) [Cpd 427]",> 50
3,Ac-[hLeu]YCVG[Ala(piperidin-4-yl)][Cha]DVYC[Trp(5-F)]F[Val(3-OH)][dK](DOTA)-NH2 (disulfide 3-11 (inferred)) [Cpd 227],> 50
4,Ac-[hLeu]YC[Tle]G[Pip(PEG4-DOTA)Ala][Ala(4-THP)]DVYC[Trp(5-F)]F[Val(3-OH)][dS]-NH2 (disulfide 3-11 (inferred)) [Cpd 407],> 50
5,Ac-[hLeu]YC[Tle]G[Ala(piperidin-4-yl)][Ala(4-THP)]DVYC[Trp(5-F)]F[Val(3-OH)][dK](DOTA)-OH (disulfide 3-11 (inferred)) [Cpd 340],> 50
6,Ac-[hLeu]YC[Tle]GK[Pip(PEG4-DOTA)Ala]DVYC[Trp(5-F)]F[Val(3-OH)][dA]-NH2 (disulfide 3-11 (inferred)) [Cpd 385],> 50
7,Ac-[hLeu]YC[Tle]G[PipAla](CH2CO2H)[Ala(4-THP)]DVYC[Trp(5-F)]F[Val(3-OH)][dK](DOTA)-OH (disulfide 3-11 (inferred)) [Cpd 339],> 50

# Now from value to binder:
row,% cell associated fraction [%],Binder
1,> 50,"Ac-[hLeu]YC[Tle]G[PipAla](CH2COOH)[Ala(4-THP)]DV[Phe(4-NHCONH2)]C[Trp(5-F)][(2S,3S)βMePhe][Val(3-OH)][dK](DOTA)-OH (disulfide 3-11 (inferred)) [Cpd 499]"
2,> 50,Ac-[hLeu]YC[Tle]G[PipAla][PipAla]([PEG4′-DOTA])DVYC[Trp(5-F)]F[hydroxyVal][dA]-OH (disulfide 3-11 (inferred)) [Cpd 455]
3,> 50,"Ac-[hLeu]YC[Tle]G[PipAla][PipAla]([PEG4′-DOTA])DVYC[Trp(5-F)][(2S,3S)βMePhe][Val(3-OH)][dE]-NH2 (disulfide 3-11 (inferred)) [Cpd 495]"
4,> 50,"Ac-[hLeu]YC[Tle]G[PipAla][Ala(4-THP)]DVYCX[(2S,3S)βMePhe][hydroxyVal][dK](DOTA)-OH (disulfide 3-11 (inferred); not fully specified (residue 12); printed as Ac-hLeu-Y-C-Tbg-G-PipAla-ThpA-D-V-Y-C-5FW-[(2S, 3S)beta-Me-Phe]-hydroxyVal-dLys(DOTA)-COOH, disulfide) [Cpd 433]"
5,> 50,Ac-[hLeu]YC[Tle]G[PipAla][Ala(4-THP)]DVYC[Trp(5-F)]F[hydroxyVal][dK]([hGlu-DOTA])-OH (disulfide 3-11 (inferred)) [Cpd 464]
6,> 50,"Ac-[hLeu]YC[Tle]G[PipAla](CH2COOH)[Ala(4-THP)]DVYC[Trp(5-F)][(2S,3S)βMePhe][Val(3-OH)][dK](DOTA)-OH (disulfide 3-11 (inferred)) [Cpd 497]"
7,> 50,"Ac-[hLeu]YC[Tle]G[PipAla][Ala(4-THP)]DVYC[Trp(5-F)][(2S,3S)βMePhe][Val(3-OH)][dK]([dE-DOTA])-OH (disulfide 3-11 (inferred)) [Cpd 501]"
